Assay [1] has as its target T1, LN3 (long negative designed polypeptide).
T1 construct: Synthetic 48-residue polyanion; also called negative 48-residue peptide
T1 peptide: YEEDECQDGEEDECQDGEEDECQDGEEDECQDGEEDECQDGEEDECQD
As to the kind of experiment: QCM, electrostatic layer-by-layer adsorption of oppositely charged peptides, pH 7.4, 1 mM DTT (pairs named in paragraph 153). As for the experimental part: (§1) The polypeptide molecular weight was verified by electrospray mass spectrometry. Peptide purity was greater than 70%. The polypeptide buffer was 10 mM sodium phosphate or 10 mM Tris-HCl, 1 mM DTT, 0.1 mM sodium azide, pH 7.4. All chemicals other than polypeptides were purchased from Sigma-Aldrich (USA).
(§2) Resonators were rinsed for 1 min. in pure water between subsequent adsorption cycles (removing perhaps 10-15% of weakly adsorbed material) and dried in a stream of gaseous N₂. Then the mass of the deposited peptide was measured indirectly by QCM. The mass measurement includes some water, despite drying, and low mass ions like K⁺, Na⁺, and Cl⁻. Partial interpenetration of neighboring layers of peptide is probable (see Decher, G. (1997) Science 227:1232; Schmitt et al. (1993) Macromolecules 26:7058; and Korneev et al. (1995) Physica B 214:954); this could be important for the efficiency of disulfide “locking.”
(§3) After adsorption of the polypeptide and rinsing and drying the QCM resonator, the resonant frequency of the resonator was measured. This enabled calculation of the frequency shift on adsorption and change in adsorbed mass. A decrease in frequency indicates an increase in adsorbed mass. […] Each of these combinations involved one negative polypeptide and one positive polypeptide, as required by ELBL.

Assay [2] deals with T2, SN1 (short negative designed polypeptide).
T2 construct: Synthetic 32-residue polyanion built from a 7-residue motif of human complement C3, with Gly linkers and an N-terminal Tyr
T2 peptide: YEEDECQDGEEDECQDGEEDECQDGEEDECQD
Described as above. The method, then:
as §1, §2, §3

Assay [3] addresses T3, de novo-designed cysteine-containing negative polypeptide (SEQ ID NO: 6).
T3 peptide: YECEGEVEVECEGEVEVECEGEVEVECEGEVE
Put plainly: QCM, layer-by-layer assembly, 10 mM Tris-HCl, 10 mM DTT, pH 7.4, 2 mg/mL peptide. As for the experimental part:
All assembly experiments using QCM were conducted in the same conditions, except that the samples to undergo oxidation were dried using air instead of nitrogen gas. The assembly conditions were 10 mM Tris-HCl, 10 mM DTT, pH 7.4. The nominal peptide concentration was 2 mg/mL. The number of layers formed was 14.

We go through three molecules from patent US20090233074A1 (ARTIFICIAL CELL TECHNOLOGIES, published 2009).

B1: SP2 (short positive designed polypeptide) (peptide)
peptide: YRRRRSVQGRRRRSVQGRRRRSVQGRRRRSVQ
notes: Synthetic 32-residue polycation built from a 7-residue motif of human lactotransferrin, with Gly linkers and an N-terminal Tyr
As to B1, the binding result in assay [1] and in assay [2] was “binds” each time.

B2: de novo-designed cysteine-containing positive polypeptide (SEQ ID NO: 5) (peptide)
peptide: YKCKGKVKVKCKGKVKVKCKGKVKVKCKGKVK
Take B2: in assay [3], the binding result is “binds”.

B3: LP4 (long positive designed polypeptide) (peptide)
peptide: YRRRRSVQGRRRRSVQGRRRRSVQGRRRRSVQGRRRRSVQGRRRRSVQ
notes: Synthetic 48-residue polycation
In the case of B3, in assay [1], the binding result is recorded as “binds”.
